Patent US12679878B2, “CRF2 receptor agonists and their use in therapy” (SANOFI, priority 2020, dated 2026)
Starred links: 1 amine or outer side, 2 acyl side, 3 side chain; linkers in the order of their positions; H or OH if unused. Non-standard residues stand in square brackets, D forms with d. Groups on a side chain read outwards from the residue. No end group written: not given here. *: point of attachment. C18 diacid = O=C(O)CCCCCCCCCCCCCCCCC(=O)*; γGlu = O=C(O)[C@H](CCC(=O)[*:2])N[*:1]; Palmitoyl = CCCCCCCCCCCCCCCC(=O)*; AEEA = NCCOCCOCC(=O)O; Aib = CC(C)(N)C(=O)O

T1: anti-target CRF1R receptor (UniProt P34998 24-415, limits assumed)
T1 sequence (looked up): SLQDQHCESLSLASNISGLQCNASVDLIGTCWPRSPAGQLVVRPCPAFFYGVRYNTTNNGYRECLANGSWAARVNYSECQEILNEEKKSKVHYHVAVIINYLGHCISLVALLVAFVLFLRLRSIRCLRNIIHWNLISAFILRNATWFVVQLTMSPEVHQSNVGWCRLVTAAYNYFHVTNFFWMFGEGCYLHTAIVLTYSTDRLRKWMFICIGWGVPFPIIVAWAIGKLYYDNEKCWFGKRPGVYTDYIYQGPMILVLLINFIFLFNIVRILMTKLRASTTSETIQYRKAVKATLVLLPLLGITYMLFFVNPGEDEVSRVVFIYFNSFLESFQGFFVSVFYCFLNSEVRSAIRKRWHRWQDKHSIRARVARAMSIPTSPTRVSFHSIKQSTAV

B1: peptide of SEQ ID NO: 14 (peptide)
peptide: FTLSLDVPTKIK([γGlu-Palmitoyl])QKLLKQEKQRKQKQKAKTNAKILARV-NH2
modifications: N-terminus assumed
SMILES: CCCCCCCCCCCCCCCC(=O)N[C@@H](CCC(=O)NCCCC[C@H](NC(=O)[C@@H](NC(=O)[C@H](CCCCN)NC(=O)[C@@H](NC(=O)[C@@H]1CCCN1C(=O)[C@@H](NC(=O)[C@H](CC(=O)O)NC(=O)[C@H](CC(C)C)NC(=O)[C@H](CO)NC(=O)[C@H](CC(C)C)NC(=O)[C@@H](NC(=O)[C@@H](N)Cc1ccccc1)[C@@H](C)O)C(C)C)[C@@H](C)O)[C@@H](C)CC)C(=O)N[C@@H](CCC(N)=O)C(=O)N[C@@H](CCCCN)C(=O)N[C@@H](CC(C)C)C(=O)N[C@@H](CC(C)C)C(=O)N[C@@H](CCCCN)C(=O)N[C@@H](CCC(N)=O)C(=O)N[C@@H](CCC(=O)O)C(=O)N[C@@H](CCCCN)C(=O)N[C@@H](CCC(N)=O)C(=O)N[C@@H](CCCNC(=N)N)C(=O)N[C@@H](CCCCN)C(=O)N[C@@H](CCC(N)=O)C(=O)N[C@@H](CCCCN)C(=O)N[C@@H](CCC(N)=O)C(=O)N[C@@H](CCCCN)C(=O)N[C@@H](C)C(=O)N[C@@H](CCCCN)C(=O)N[C@H](C(=O)N[C@@H](CC(N)=O)C(=O)N[C@@H](C)C(=O)N[C@@H](CCCCN)C(=O)N[C@H](C(=O)N[C@@H](CC(C)C)C(=O)N[C@@H](C)C(=O)N[C@@H](CCCNC(=N)N)C(=O)N[C@H](C(N)=O)C(C)C)[C@@H](C)CC)[C@@H](C)O)C(=O)O
B2: peptide of SEQ ID NO: 21 (peptide)
peptide: IVLSLD[dV]PTKLK([γGlu-Palmitoyl])QKLLKQERQRKE[Aib]EQAEKNKRILERV-NH2
modifications: N-terminus assumed
SMILES: CCCCCCCCCCCCCCCC(=O)N[C@@H](CCC(=O)NCCCC[C@H](NC(=O)[C@H](CC(C)C)NC(=O)[C@H](CCCCN)NC(=O)[C@@H](NC(=O)[C@@H]1CCCN1C(=O)[C@H](NC(=O)[C@H](CC(=O)O)NC(=O)[C@H](CC(C)C)NC(=O)[C@H](CO)NC(=O)[C@H](CC(C)C)NC(=O)[C@@H](NC(=O)[C@@H](N)[C@@H](C)CC)C(C)C)C(C)C)[C@@H](C)O)C(=O)N[C@@H](CCC(N)=O)C(=O)N[C@@H](CCCCN)C(=O)N[C@@H](CC(C)C)C(=O)N[C@@H](CC(C)C)C(=O)N[C@@H](CCCCN)C(=O)N[C@@H](CCC(N)=O)C(=O)N[C@@H](CCC(=O)O)C(=O)N[C@@H](CCCNC(=N)N)C(=O)N[C@@H](CCC(N)=O)C(=O)N[C@@H](CCCNC(=N)N)C(=O)N[C@@H](CCCCN)C(=O)N[C@@H](CCC(=O)O)C(=O)NC(C)(C)C(=O)N[C@@H](CCC(=O)O)C(=O)N[C@@H](CCC(N)=O)C(=O)N[C@@H](C)C(=O)N[C@@H](CCC(=O)O)C(=O)N[C@@H](CCCCN)C(=O)N[C@@H](CC(N)=O)C(=O)N[C@@H](CCCCN)C(=O)N[C@@H](CCCNC(=N)N)C(=O)N[C@H](C(=O)N[C@@H](CC(C)C)C(=O)N[C@@H](CCC(=O)O)C(=O)N[C@@H](CCCNC(=N)N)C(=O)N[C@H](C(N)=O)C(C)C)[C@@H](C)CC)C(=O)O
B3: peptide of SEQ ID NO: 161 (peptide)
peptide: Ac-IVLSLD[dV]PIKLK([AEEA-AEEA-γGlu-C18 diacid])QILLEQERQE[Aib]EREQAEKNEQILEQV-NH2
SMILES: CC[C@H](C)[C@H](NC(C)=O)C(=O)N[C@H](C(=O)N[C@@H](CC(C)C)C(=O)N[C@@H](CO)C(=O)N[C@@H](CC(C)C)C(=O)N[C@@H](CC(=O)O)C(=O)N[C@@H](C(=O)N1CCC[C@H]1C(=O)N[C@H](C(=O)N[C@@H](CCCCN)C(=O)N[C@@H](CC(C)C)C(=O)N[C@@H](CCCCNC(=O)COCCOCCNC(=O)COCCOCCNC(=O)CC[C@H](NC(=O)CCCCCCCCCCCCCCCCC(=O)O)C(=O)O)C(=O)N[C@@H](CCC(N)=O)C(=O)N[C@H](C(=O)N[C@@H](CC(C)C)C(=O)N[C@@H](CC(C)C)C(=O)N[C@@H](CCC(=O)O)C(=O)N[C@@H](CCC(N)=O)C(=O)N[C@@H](CCC(=O)O)C(=O)N[C@@H](CCCNC(=N)N)C(=O)N[C@@H](CCC(N)=O)C(=O)N[C@@H](CCC(=O)O)C(=O)NC(C)(C)C(=O)N[C@@H](CCC(=O)O)C(=O)N[C@@H](CCCNC(=N)N)C(=O)N[C@@H](CCC(=O)O)C(=O)N[C@@H](CCC(N)=O)C(=O)N[C@@H](C)C(=O)N[C@@H](CCC(=O)O)C(=O)N[C@@H](CCCCN)C(=O)N[C@@H](CC(N)=O)C(=O)N[C@@H](CCC(=O)O)C(=O)N[C@@H](CCC(N)=O)C(=O)N[C@H](C(=O)N[C@@H](CC(C)C)C(=O)N[C@@H](CCC(=O)O)C(=O)N[C@@H](CCC(N)=O)C(=O)N[C@H](C(N)=O)C(C)C)[C@@H](C)CC)[C@@H](C)CC)[C@@H](C)CC)C(C)C)C(C)C
B4: peptide of SEQ ID NO: 32 (peptide)
peptide: IVLSLD[dV]PTKLK([γGlu-Palmitoyl])QKLLKQERQRKEREQAEKNVRILERV-NH2
modifications: not fully specified; printed as IVLSLDvPTKLK*QKLLKQERQRKEREQAEKNVRILERV-NH2
B5: peptide of SEQ ID NO: 160 (peptide)
peptide: Ac-IVLSLD[dV]PIKLK([AEEA-AEEA-γGlu-C18 diacid])QILLEQERQE[Aib]EREQAETNKQILEQV-NH2
SMILES: CC[C@H](C)[C@H](NC(C)=O)C(=O)N[C@H](C(=O)N[C@@H](CC(C)C)C(=O)N[C@@H](CO)C(=O)N[C@@H](CC(C)C)C(=O)N[C@@H](CC(=O)O)C(=O)N[C@@H](C(=O)N1CCC[C@H]1C(=O)N[C@H](C(=O)N[C@@H](CCCCN)C(=O)N[C@@H](CC(C)C)C(=O)N[C@@H](CCCCNC(=O)COCCOCCNC(=O)COCCOCCNC(=O)CC[C@H](NC(=O)CCCCCCCCCCCCCCCCC(=O)O)C(=O)O)C(=O)N[C@@H](CCC(N)=O)C(=O)N[C@H](C(=O)N[C@@H](CC(C)C)C(=O)N[C@@H](CC(C)C)C(=O)N[C@@H](CCC(=O)O)C(=O)N[C@@H](CCC(N)=O)C(=O)N[C@@H](CCC(=O)O)C(=O)N[C@@H](CCCNC(=N)N)C(=O)N[C@@H](CCC(N)=O)C(=O)N[C@@H](CCC(=O)O)C(=O)NC(C)(C)C(=O)N[C@@H](CCC(=O)O)C(=O)N[C@@H](CCCNC(=N)N)C(=O)N[C@@H](CCC(=O)O)C(=O)N[C@@H](CCC(N)=O)C(=O)N[C@@H](C)C(=O)N[C@@H](CCC(=O)O)C(=O)N[C@H](C(=O)N[C@@H](CC(N)=O)C(=O)N[C@@H](CCCCN)C(=O)N[C@@H](CCC(N)=O)C(=O)N[C@H](C(=O)N[C@@H](CC(C)C)C(=O)N[C@@H](CCC(=O)O)C(=O)N[C@@H](CCC(N)=O)C(=O)N[C@H](C(N)=O)C(C)C)[C@@H](C)CC)[C@@H](C)O)[C@@H](C)CC)[C@@H](C)CC)C(C)C)C(C)C
B6: peptide of SEQ ID NO: 19 (peptide)
peptide: IVLSLD[dV]PTKLK([γGlu-Palmitoyl])QKLLKQERQR[Aib]EREQAEKNKRILERV-NH2
modifications: N-terminus assumed
SMILES: CCCCCCCCCCCCCCCC(=O)N[C@@H](CCC(=O)NCCCC[C@H](NC(=O)[C@H](CC(C)C)NC(=O)[C@H](CCCCN)NC(=O)[C@@H](NC(=O)[C@@H]1CCCN1C(=O)[C@H](NC(=O)[C@H](CC(=O)O)NC(=O)[C@H](CC(C)C)NC(=O)[C@H](CO)NC(=O)[C@H](CC(C)C)NC(=O)[C@@H](NC(=O)[C@@H](N)[C@@H](C)CC)C(C)C)C(C)C)[C@@H](C)O)C(=O)N[C@@H](CCC(N)=O)C(=O)N[C@@H](CCCCN)C(=O)N[C@@H](CC(C)C)C(=O)N[C@@H](CC(C)C)C(=O)N[C@@H](CCCCN)C(=O)N[C@@H](CCC(N)=O)C(=O)N[C@@H](CCC(=O)O)C(=O)N[C@@H](CCCNC(=N)N)C(=O)N[C@@H](CCC(N)=O)C(=O)N[C@@H](CCCNC(=N)N)C(=O)NC(C)(C)C(=O)N[C@@H](CCC(=O)O)C(=O)N[C@@H](CCCNC(=N)N)C(=O)N[C@@H](CCC(=O)O)C(=O)N[C@@H](CCC(N)=O)C(=O)N[C@@H](C)C(=O)N[C@@H](CCC(=O)O)C(=O)N[C@@H](CCCCN)C(=O)N[C@@H](CC(N)=O)C(=O)N[C@@H](CCCCN)C(=O)N[C@@H](CCCNC(=N)N)C(=O)N[C@H](C(=O)N[C@@H](CC(C)C)C(=O)N[C@@H](CCC(=O)O)C(=O)N[C@@H](CCCNC(=N)N)C(=O)N[C@H](C(N)=O)C(C)C)[C@@H](C)CC)C(=O)O

biological target: T1, anti-target CRF1R receptor; assay: cell-based or functional assay

EC50[nM] 0% HSA (cAMP, CRF1R-overexpression CHO cells)	Emax (%) (cAMP, CRF1R-overexpression CHO cells)	Binder
> 1000 nM	14.1%	B1
618 nM	59.2%	B2
> 1000 nM	3.42%	B3
> 1000 nM	27%	B4
> 1000 nM	20.8%	B5
571 nM	57.4%	B6
